Assay results published in paper doi:10.1101/2020.02.12.946293 (bioRxiv, 2020).

Target: hMLH1-hMLH3 (human, UniProt P40692;Q9UHC1)
Test: pull-down

Sequence of hMLH1-hMLH3 (P40692 whole entry, chain 1 of 2): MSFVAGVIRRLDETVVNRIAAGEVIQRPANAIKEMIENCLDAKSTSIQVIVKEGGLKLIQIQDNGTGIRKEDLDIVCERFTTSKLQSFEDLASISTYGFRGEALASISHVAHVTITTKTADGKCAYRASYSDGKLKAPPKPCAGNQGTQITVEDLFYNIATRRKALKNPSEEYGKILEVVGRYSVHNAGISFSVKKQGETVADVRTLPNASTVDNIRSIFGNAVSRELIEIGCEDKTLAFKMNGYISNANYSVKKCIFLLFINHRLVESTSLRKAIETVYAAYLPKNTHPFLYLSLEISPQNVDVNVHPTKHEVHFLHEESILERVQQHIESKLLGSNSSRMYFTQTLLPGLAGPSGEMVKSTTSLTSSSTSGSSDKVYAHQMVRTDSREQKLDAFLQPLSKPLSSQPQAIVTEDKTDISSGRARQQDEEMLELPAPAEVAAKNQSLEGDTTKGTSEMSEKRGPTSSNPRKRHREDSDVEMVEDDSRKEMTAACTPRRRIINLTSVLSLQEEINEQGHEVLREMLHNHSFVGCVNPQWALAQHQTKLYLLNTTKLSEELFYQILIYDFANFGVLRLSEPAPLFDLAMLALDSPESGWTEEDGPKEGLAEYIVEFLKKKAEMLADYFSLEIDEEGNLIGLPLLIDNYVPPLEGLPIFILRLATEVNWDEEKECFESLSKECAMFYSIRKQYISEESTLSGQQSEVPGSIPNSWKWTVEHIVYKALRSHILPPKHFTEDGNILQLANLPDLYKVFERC
Sequence of hMLH1-hMLH3 (Q9UHC1 whole entry, chain 2 of 2): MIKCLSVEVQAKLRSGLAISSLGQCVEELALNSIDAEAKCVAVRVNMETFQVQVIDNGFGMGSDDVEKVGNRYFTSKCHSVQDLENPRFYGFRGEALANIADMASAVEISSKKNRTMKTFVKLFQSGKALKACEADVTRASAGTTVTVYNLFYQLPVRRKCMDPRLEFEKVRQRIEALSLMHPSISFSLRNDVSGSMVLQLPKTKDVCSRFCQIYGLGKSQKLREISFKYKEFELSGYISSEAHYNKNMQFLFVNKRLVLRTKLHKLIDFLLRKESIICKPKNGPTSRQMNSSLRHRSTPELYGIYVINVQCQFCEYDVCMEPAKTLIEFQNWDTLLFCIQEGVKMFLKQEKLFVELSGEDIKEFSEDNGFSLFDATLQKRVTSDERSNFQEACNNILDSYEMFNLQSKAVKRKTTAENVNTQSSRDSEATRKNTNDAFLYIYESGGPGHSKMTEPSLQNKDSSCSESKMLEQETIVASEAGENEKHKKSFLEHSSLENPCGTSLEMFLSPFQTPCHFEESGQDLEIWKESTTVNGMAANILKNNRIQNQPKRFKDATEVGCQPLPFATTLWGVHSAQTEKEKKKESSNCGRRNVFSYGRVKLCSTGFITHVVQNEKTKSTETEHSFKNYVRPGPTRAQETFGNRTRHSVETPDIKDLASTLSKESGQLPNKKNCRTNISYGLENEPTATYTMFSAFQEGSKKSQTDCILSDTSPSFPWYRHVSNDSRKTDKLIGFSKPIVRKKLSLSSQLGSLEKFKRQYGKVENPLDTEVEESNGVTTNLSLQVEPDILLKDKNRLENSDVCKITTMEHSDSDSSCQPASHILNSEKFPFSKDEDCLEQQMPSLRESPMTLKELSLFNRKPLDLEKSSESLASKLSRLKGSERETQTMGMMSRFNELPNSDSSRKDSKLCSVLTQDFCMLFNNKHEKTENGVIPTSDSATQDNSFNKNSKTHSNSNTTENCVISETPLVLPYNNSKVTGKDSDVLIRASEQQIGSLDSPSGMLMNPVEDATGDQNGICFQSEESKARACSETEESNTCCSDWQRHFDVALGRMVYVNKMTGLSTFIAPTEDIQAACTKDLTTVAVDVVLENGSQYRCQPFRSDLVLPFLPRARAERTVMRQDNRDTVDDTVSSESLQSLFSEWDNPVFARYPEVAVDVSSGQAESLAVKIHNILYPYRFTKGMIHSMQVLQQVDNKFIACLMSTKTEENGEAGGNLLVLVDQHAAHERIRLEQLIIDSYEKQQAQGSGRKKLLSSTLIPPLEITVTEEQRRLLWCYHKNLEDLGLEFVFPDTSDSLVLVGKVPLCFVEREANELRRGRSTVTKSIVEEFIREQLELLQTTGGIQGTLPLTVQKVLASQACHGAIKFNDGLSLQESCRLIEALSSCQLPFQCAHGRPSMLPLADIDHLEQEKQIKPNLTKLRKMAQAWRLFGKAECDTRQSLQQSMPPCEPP

B1: hEXO1(D173A) (enzyme)
chain: MGIQGLLQFIKEASEPIHVRKYKGQVVAVDTYCWLHKGAIACAEKLAKGEPTDRYVGFCMKFVNMLLSHGIKPILVFDGCTLPSKKEVERSRRERRQANLLKGKQLLREGKVSEARECFTRSINITHAMAHKVIKAARSQGVDCLVAPYEADAQLAYLNKAGIVQAIITEDSALLAFGCKKVILKMDQFGNGLEIDQARLGMCRQLGDVFTEEKFRYMCILSGCDYLSSLRGIGLAKACKVLRLANNPDIVKVIKKIGHYLKMNITVPEDYINGFIRANNTFLYQLVFDPIKRKLIPLNAYEDDVDPETLSYAGQYVDDSIALQIALGNKDINTFEQIDDYNPDTAMPAHSRSHSWDDKTCQKSANVSSIWHRNYSPRPESGTVSDAPQLKENPSTVGVERVISTKGLNLPRKSSIVKRPRSAELSEDDLLSQYSLSFTKKTKKNSSEGNKSLSFSEVFVPDLVNGPTNKKSVSTPPRTRNKFATFLQRKNEESGAVVVPGTRSRFFCSSDSTDCVSNKVSIQPLDETAVTDKENNLHESEYGDQEGKRLVDTDVARNSSDDIPNNHIPGDHIPDKATVFTDEESYSFESSKFTRTISPPTLGTLRSCFSWSGGLGDFSRTPSPSPSTALQQFRRKSDSPTSLPENNMSDVSQLKSEESSDDESHPLREEACSSQSQESGEFSLQSSNASKLSQCSSKDSDSEESDCNIKLLDSQSDQTSKLRLSHFSKKDTPLRNKVPGLYKSSSADSLSTTKIKPLGPARASGLSKKPASIQKRKHHNAENKPGLQIKLNELWKNFGFKKDSEKLPPCKKPLSPVRDNIQLTPEAEEDIFNKPECGRVQRAIFQ
Q: Does B1 bind?
A: binds
